# Experimental data reported in article PMC4434323.
# Legend:
# [1] = target: odd-2 (C34H3.2) (Caenorhabditis elegans) (UniProt Q9N5X6)
# [2] = target: T1, che-1 (C55B7.12) (Caenorhabditis elegans) (UniProt Q966L8)
# T1 sequence: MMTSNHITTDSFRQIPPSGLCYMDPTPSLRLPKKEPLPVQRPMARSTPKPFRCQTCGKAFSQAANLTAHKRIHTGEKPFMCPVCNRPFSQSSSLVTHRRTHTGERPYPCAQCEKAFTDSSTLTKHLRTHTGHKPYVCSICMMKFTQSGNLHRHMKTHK
# [3] = target: T2, F13H6.1 (F13H6.1) (Caenorhabditis elegans) (UniProt H2KZR6)
# T2 sequence: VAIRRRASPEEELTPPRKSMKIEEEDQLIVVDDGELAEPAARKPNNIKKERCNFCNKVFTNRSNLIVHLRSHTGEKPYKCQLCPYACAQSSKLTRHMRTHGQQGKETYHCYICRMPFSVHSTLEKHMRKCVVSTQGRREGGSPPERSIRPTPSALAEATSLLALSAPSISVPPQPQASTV
# [4] = target: ZC328.2 (ZC328.2) (Caenorhabditis elegans) (UniProt O02050)
# [5] = target: egrh-1 (C27C12.2) (Caenorhabditis elegans) (UniProt Q18250)
# [6] = target: T3, ztf-19 (T27B1.2) (Caenorhabditis elegans) (UniProt Q22829)
# T3 sequence: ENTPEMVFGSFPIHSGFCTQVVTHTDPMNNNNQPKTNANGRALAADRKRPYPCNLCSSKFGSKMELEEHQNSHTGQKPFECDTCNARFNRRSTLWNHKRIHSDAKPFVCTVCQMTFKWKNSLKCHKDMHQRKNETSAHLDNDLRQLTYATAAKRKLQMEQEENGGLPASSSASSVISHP
# [7] = target: T4, die-1 (C18D1.1) (Caenorhabditis elegans) (UniProt A0A131MCR4)
# T4 sequence: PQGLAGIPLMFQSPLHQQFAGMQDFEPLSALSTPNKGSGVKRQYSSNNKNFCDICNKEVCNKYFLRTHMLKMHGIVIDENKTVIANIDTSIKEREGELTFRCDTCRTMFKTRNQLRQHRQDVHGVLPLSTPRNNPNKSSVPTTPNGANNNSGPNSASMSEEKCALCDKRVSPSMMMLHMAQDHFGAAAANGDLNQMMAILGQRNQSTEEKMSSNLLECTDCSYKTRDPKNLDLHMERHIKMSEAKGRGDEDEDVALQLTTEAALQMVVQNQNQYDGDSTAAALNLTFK
# [8] = target: T5, F10B5.3 (F10B5.3) (Caenorhabditis elegans) (UniProt Q09534)
# T5 sequence: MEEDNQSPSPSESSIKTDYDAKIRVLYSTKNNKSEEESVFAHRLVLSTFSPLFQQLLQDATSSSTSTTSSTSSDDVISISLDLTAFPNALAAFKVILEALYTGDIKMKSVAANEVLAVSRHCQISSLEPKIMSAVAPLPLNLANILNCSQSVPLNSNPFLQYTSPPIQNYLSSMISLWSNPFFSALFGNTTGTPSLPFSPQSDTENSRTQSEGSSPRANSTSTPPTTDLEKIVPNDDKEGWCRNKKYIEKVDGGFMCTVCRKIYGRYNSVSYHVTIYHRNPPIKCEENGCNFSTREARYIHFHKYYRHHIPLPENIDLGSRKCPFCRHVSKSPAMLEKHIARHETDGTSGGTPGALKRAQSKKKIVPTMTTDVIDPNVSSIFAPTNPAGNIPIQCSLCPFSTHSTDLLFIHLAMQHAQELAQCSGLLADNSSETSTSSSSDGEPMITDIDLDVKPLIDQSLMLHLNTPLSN
# [9] = target: T6, ZK337.2 (ZK337.2) (Caenorhabditis elegans) (UniProt O46016)
# T6 sequence: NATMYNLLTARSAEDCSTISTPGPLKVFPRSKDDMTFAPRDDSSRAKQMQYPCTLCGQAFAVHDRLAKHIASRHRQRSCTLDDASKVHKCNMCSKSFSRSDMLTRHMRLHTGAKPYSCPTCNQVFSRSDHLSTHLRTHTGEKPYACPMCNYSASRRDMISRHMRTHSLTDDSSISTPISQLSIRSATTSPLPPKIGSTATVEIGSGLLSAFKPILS
# Sequence of odd-2 (C34H3.2) (Caenorhabditis elegans) (Q9N5X6 74-252): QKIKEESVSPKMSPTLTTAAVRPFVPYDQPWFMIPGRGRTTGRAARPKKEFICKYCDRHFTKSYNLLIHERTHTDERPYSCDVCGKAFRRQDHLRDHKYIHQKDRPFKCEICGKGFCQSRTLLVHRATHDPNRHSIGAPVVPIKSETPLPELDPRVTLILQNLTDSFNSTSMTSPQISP
# Sequence of egrh-1 (C27C12.2) (Caenorhabditis elegans) (Q18250 324-461): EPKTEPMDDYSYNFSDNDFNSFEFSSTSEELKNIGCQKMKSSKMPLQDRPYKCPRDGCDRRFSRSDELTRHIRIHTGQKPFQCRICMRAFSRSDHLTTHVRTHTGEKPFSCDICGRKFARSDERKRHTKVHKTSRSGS
# Sequence of ZC328.2 (ZC328.2) (Caenorhabditis elegans) (O02050 entry or part of it): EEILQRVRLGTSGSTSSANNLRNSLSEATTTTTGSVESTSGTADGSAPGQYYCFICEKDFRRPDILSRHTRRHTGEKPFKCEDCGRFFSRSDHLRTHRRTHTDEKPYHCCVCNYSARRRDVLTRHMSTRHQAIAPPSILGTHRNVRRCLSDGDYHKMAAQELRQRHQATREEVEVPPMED
sequence,measurement,setting,value
AACAGTAG (double strand) [8-mer AACAGTAG],binding signal (PBM E-score (-0.5 to 0.5)),[1],0.492
AAGAAGCC (double strand) [8-mer AAGAAGCC],binding signal (PBM E-score (-0.5 to 0.5)),[2],0.493
AAGGCTTC (double strand) [8-mer AAGGCTTC],binding signal (PBM E-score (-0.5 to 0.5)),[2],0.494
AAGTGACC (double strand) [8-mer AAGTGACC],binding signal (PBM E-score (-0.5 to 0.5)),[3],0.494
AATGACCA (double strand) [8-mer AATGACCA],binding signal (PBM E-score (-0.5 to 0.5)),[3],0.496
AATGGTCA (double strand) [8-mer AATGGTCA],binding signal (PBM E-score (-0.5 to 0.5)),[3],0.495
ACAGTAGC (double strand) [8-mer ACAGTAGC],binding signal (PBM E-score (-0.5 to 0.5)),[1],0.499
ACCCCCGC (double strand) [8-mer ACCCCCGC],binding signal (PBM E-score (-0.5 to 0.5)),[4],0.492
same,binding signal (PBM E-score (-0.5 to 0.5)),[5],0.485
ACGGAAGC (double strand) [8-mer ACGGAAGC],binding signal (PBM E-score (-0.5 to 0.5)),[1],0.485
ACGGTAGC (double strand) [8-mer ACGGTAGC],binding signal (PBM E-score (-0.5 to 0.5)),[1],0.498
ACTGACCA (double strand) [8-mer ACTGACCA],binding signal (PBM E-score (-0.5 to 0.5)),[3],0.497
ACTGGTCA (double strand) [8-mer ACTGGTCA],binding signal (PBM E-score (-0.5 to 0.5)),[3],0.495
AGAAGCCA (double strand) [8-mer AGAAGCCA],binding signal (PBM E-score (-0.5 to 0.5)),[2],0.489
AGAAGCCC (double strand) [8-mer AGAAGCCC],binding signal (PBM E-score (-0.5 to 0.5)),[2],0.491
AGCTACCG (double strand) [8-mer AGCTACCG],binding signal (PBM E-score (-0.5 to 0.5)),[1],0.492
AGCTACTG (double strand) [8-mer AGCTACTG],binding signal (PBM E-score (-0.5 to 0.5)),[1],0.492
AGGAAGCC (double strand) [8-mer AGGAAGCC],binding signal (PBM E-score (-0.5 to 0.5)),[2],0.49
AGGCTTCC (double strand) [8-mer AGGCTTCC],binding signal (PBM E-score (-0.5 to 0.5)),[2],0.491
AGGGCTTC (double strand) [8-mer AGGGCTTC],binding signal (PBM E-score (-0.5 to 0.5)),[2],0.497
AGGGGGCG (double strand) [8-mer AGGGGGCG],binding signal (PBM E-score (-0.5 to 0.5)),[5],0.486
AGTGACCA (double strand) [8-mer AGTGACCA],binding signal (PBM E-score (-0.5 to 0.5)),[3],0.498
AGTGGTCA (double strand) [8-mer AGTGGTCA],binding signal (PBM E-score (-0.5 to 0.5)),[3],0.497
AGTTTAAA (double strand) [8-mer AGTTTAAA],binding signal (PBM E-score (-0.5 to 0.5)),[6],0.495
same,binding signal (PBM E-score (-0.5 to 0.5)),[7],0.49
ATGAAGCC (double strand) [8-mer ATGAAGCC],binding signal (PBM E-score (-0.5 to 0.5)),[2],0.489
ATGGCTTC (double strand) [8-mer ATGGCTTC],binding signal (PBM E-score (-0.5 to 0.5)),[2],0.495
ATTTCCAG (double strand) [8-mer ATTTCCAG],binding signal (PBM E-score (-0.5 to 0.5)),[8],0.473
CAGTAGCA (double strand) [8-mer CAGTAGCA],binding signal (PBM E-score (-0.5 to 0.5)),[1],0.495
CAGTAGCC (double strand) [8-mer CAGTAGCC],binding signal (PBM E-score (-0.5 to 0.5)),[1],0.492
CAGTAGCG (double strand) [8-mer CAGTAGCG],binding signal (PBM E-score (-0.5 to 0.5)),[1],0.488
CCAGTAGC (double strand) [8-mer CCAGTAGC],binding signal (PBM E-score (-0.5 to 0.5)),[1],0.492
CCCACGCA (double strand) [8-mer CCCACGCA],binding signal (PBM E-score (-0.5 to 0.5)),[4],0.497
same,binding signal (PBM E-score (-0.5 to 0.5)),[9],0.488
same,binding signal (PBM E-score (-0.5 to 0.5)),[5],0.496
CCCACGCG (double strand) [8-mer CCCACGCG],binding signal (PBM E-score (-0.5 to 0.5)),[4],0.49
same,binding signal (PBM E-score (-0.5 to 0.5)),[5],0.486
CCCCCACA (double strand) [8-mer CCCCCACA],binding signal (PBM E-score (-0.5 to 0.5)),[5],0.489
CCCCCGCA (double strand) [8-mer CCCCCGCA],binding signal (PBM E-score (-0.5 to 0.5)),[4],0.497
same,binding signal (PBM E-score (-0.5 to 0.5)),[9],0.494
same,binding signal (PBM E-score (-0.5 to 0.5)),[5],0.495
